Measurements: patent US20080313749A1

Assays:
[1] = target: … (SEQ ID NO:109), scaffold-bound CCR5-derived peptide 1158; assay: peptide microarray ELISA, 2D7 at 1 µg/ml
[2] = target: … (SEQ ID NO:107), scaffold-bound CCR5-derived peptide 1159; assay: peptide microarray ELISA, 2D7 at 1 µg/ml
[3] = target: … (SEQ ID NO:104), scaffold-bound CCR5-derived peptide 1160; assay: peptide microarray ELISA, 2D7 at 1 µg/ml
[4] = target: … (SEQ ID NO:102), scaffold-bound CCR5-derived peptide 443; assay: peptide microarray ELISA, 2D7 at 1 µg/ml
[5] = target: … (SEQ ID NO:106), scaffold-bound CCR5-derived peptide 702; assay: peptide microarray ELISA, 2D7 at 1 µg/ml
[6] = target: … (SEQ ID NO:103), scaffold-bound CCR5-derived peptide 449; assay: peptide microarray ELISA, 2D7 at 1 µg/ml
[7] = target: … (SEQ ID NO:101), scaffold-bound CCR5-derived peptide 447; assay: peptide microarray ELISA, 2D7 at 1 µg/ml
[8] = target: … (SEQ ID NO:105), scaffold-bound CCR5-derived peptide 450; assay: peptide microarray ELISA, 2D7 at 1 µg/ml
[9] = target: … (SEQ ID NO:108), scaffold-bound CCR5-derived peptide 719; assay: peptide microarray ELISA, 2D7 at 1 µg/ml
… (SEQ ID NO:108), scaffold-bound CCR5-derived peptide 719, sequence (peptide, as listed by the source): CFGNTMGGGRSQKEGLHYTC

[10] = target: … (SEQ ID NO:109), scaffold-bound CCR5-derived peptide 1158; assay: peptide microarray ELISA, 2D7 at 10 µg/ml
[11] = target: … (SEQ ID NO:107), scaffold-bound CCR5-derived peptide 1159; assay: peptide microarray ELISA, 2D7 at 10 µg/ml
[12] = target: … (SEQ ID NO:104), scaffold-bound CCR5-derived peptide 1160; assay: peptide microarray ELISA, 2D7 at 10 µg/ml
[13] = target: … (SEQ ID NO:102), scaffold-bound CCR5-derived peptide 443; assay: peptide microarray ELISA, 2D7 at 10 µg/ml
[14] = target: … (SEQ ID NO:106), scaffold-bound CCR5-derived peptide 702; assay: peptide microarray ELISA, 2D7 at 10 µg/ml
[15] = target: … (SEQ ID NO:103), scaffold-bound CCR5-derived peptide 449; assay: peptide microarray ELISA, 2D7 at 10 µg/ml
[16] = target: … (SEQ ID NO:101), scaffold-bound CCR5-derived peptide 447; assay: peptide microarray ELISA, 2D7 at 10 µg/ml
[17] = target: … (SEQ ID NO:105), scaffold-bound CCR5-derived peptide 450; assay: peptide microarray ELISA, 2D7 at 10 µg/ml
[18] = target: … (SEQ ID NO:108), scaffold-bound CCR5-derived peptide 719; assay: peptide microarray ELISA, 2D7 at 10 µg/ml
[19] = target: … (SEQ ID NO:109), scaffold-bound CCR5-derived peptide 1158; assay: peptide microarray ELISA, 2D7 at 0.1 µg/ml
[20] = target: … (SEQ ID NO:107), scaffold-bound CCR5-derived peptide 1159; assay: peptide microarray ELISA, 2D7 at 0.1 µg/ml
[21] = target: … (SEQ ID NO:104), scaffold-bound CCR5-derived peptide 1160; assay: peptide microarray ELISA, 2D7 at 0.1 µg/ml
[22] = target: … (SEQ ID NO:102), scaffold-bound CCR5-derived peptide 443; assay: peptide microarray ELISA, 2D7 at 0.1 µg/ml
[23] = target: … (SEQ ID NO:106), scaffold-bound CCR5-derived peptide 702; assay: peptide microarray ELISA, 2D7 at 0.1 µg/ml
[24] = target: … (SEQ ID NO:103), scaffold-bound CCR5-derived peptide 449; assay: peptide microarray ELISA, 2D7 at 0.1 µg/ml
[25] = target: … (SEQ ID NO:101), scaffold-bound CCR5-derived peptide 447; assay: peptide microarray ELISA, 2D7 at 0.1 µg/ml
[26] = target: … (SEQ ID NO:105), scaffold-bound CCR5-derived peptide 450; assay: peptide microarray ELISA, 2D7 at 0.1 µg/ml
[27] = target: … (SEQ ID NO:108), scaffold-bound CCR5-derived peptide 719; assay: peptide microarray ELISA, 2D7 at 0.1 µg/ml

microarray ELISA signal (absorbance 405 nm, CCD camera) [1]: 416
microarray ELISA signal (absorbance 405 nm, CCD camera) [2]: 1150
microarray ELISA signal (absorbance 405 nm, CCD camera) [3]: 2470
microarray ELISA signal (absorbance 405 nm, CCD camera) [4]: 2640
microarray ELISA signal (absorbance 405 nm, CCD camera) [5]: 1580
microarray ELISA signal (absorbance 405 nm, CCD camera) [6]: 2610
microarray ELISA signal (absorbance 405 nm, CCD camera) [7]: 2710
microarray ELISA signal (absorbance 405 nm, CCD camera) [8]: 2360
microarray ELISA signal (absorbance 405 nm, CCD camera) [9]: 678
microarray ELISA signal (absorbance 405 nm, CCD camera) [10]: 2380
microarray ELISA signal (absorbance 405 nm, CCD camera) [11]: 2640
microarray ELISA signal (absorbance 405 nm, CCD camera) [12]: 2760
microarray ELISA signal (absorbance 405 nm, CCD camera) [13]: 3090
microarray ELISA signal (absorbance 405 nm, CCD camera) [14]: 2790
microarray ELISA signal (absorbance 405 nm, CCD camera) [15]: 2890
microarray ELISA signal (absorbance 405 nm, CCD camera) [16]: 2940
microarray ELISA signal (absorbance 405 nm, CCD camera) [17]: 2850
microarray ELISA signal (absorbance 405 nm, CCD camera) [18]: 2820
microarray ELISA signal (absorbance 405 nm, CCD camera) [19]: 132
microarray ELISA signal (absorbance 405 nm, CCD camera) [20]: 213
microarray ELISA signal (absorbance 405 nm, CCD camera) [21]: 315
microarray ELISA signal (absorbance 405 nm, CCD camera) [22]: 148
microarray ELISA signal (absorbance 405 nm, CCD camera) [23]: 68
microarray ELISA signal (absorbance 405 nm, CCD camera) [24]: 99
microarray ELISA signal (absorbance 405 nm, CCD camera) [25]: 261
microarray ELISA signal (absorbance 405 nm, CCD camera) [26]: 107
microarray ELISA signal (absorbance 405 nm, CCD camera) [27]: 113
Substance: anti-CCR5 antibody 2D7
